Test results taken from IntAct's records for PubMed 22402663.

B1: Histone-lysine N-methyltransferase SETD7 (Homo sapiens), Q8WTS6 (parent)
chain: MDSDDEMVEEAVEGHLDDDGLPHGFCTVTYSSTDRFEGNFVHGEKNGRGKFFFFDGSTLEGYYVDDALQGQGVYTYEDGGVLQGTYVDGELNGPAQEYDTDGRLIFKGQYKDNIRHGVCWIYYPDGGSLVGEVNEDGEMTGEKIAYVYPDERTALYGKFIDGEMIEGKLATLMSTEEGRPHFELMPGNSVYHFDKSTSSCISTNALLPDPYESERVYVAESLISSAGEGLFSKVAVGPNTVMSFYNGVRITHQEVDSRDWALNGNTLSLDEETVIDVPEPYNHVSKYCASLGHKANHSFTPNCIYDMFVHPRFGPIKCIRTLRAVEADEELTVAYGYDHSPPGKSGPEAPEWYQVELKAFQATQQK
B2: Forkhead box protein O3 (Mus musculus), Q9WVH4 (parent)
chain: MAEAPASPVPLSPLEVELDPEFEPQSRPRSCTWPLQRPELQASPAKPSGETAADSMIPEEDDDEDDEDGGGRASSAMVIGGGVSSTLGSGLLLEDSAMLLAPGGQDLGSGPASAAGALSGGTPTQLQPQQPLPQPQPGAAGGSGQPRKCSSRRNAWGNLSYADLITRAIESSPDKRLTLSQIYEWMVRCVPYFKDKGDSNSSAGWKNSIRHNLSLHSRFMRVQNEGTGKSSWWIINPDGGKSGKAPRRRAVSMDNSNKYTKSRGRAAKKKAALQAAPESADDSPSQLSKWPGSPTSRSSDELDAWTDFRSRTNSNASTVSGRLSPILASTELDDVQDDDGPLSPMLYSSSASLSPSVSKPCTVELPRLTDMAGTMNLNDGLAENLMDDLLDNIALPPSQPSPPGGLMQRGSSFPYTAKSSGLGSPTGSFNSTVFGPSSLNSLRQSPMQTIQENRPATFSSVSHYGNQTLQDLLASDSLSHSDVMMTQSDPLMSQASTAVSAQNARRNVMLRNDPMMSFAAQPTQGSLVNQNLLHHQHQTQGALGGSRALSNSVSNMGLSDSSSLGSAKHQQQSPASQSMQTLSDSLSGSSLYSASANLPVMGHDKFPSDLDLDMFNGSLECDMESIIRSELMDADGLDFNFDSLISTQNVVGLNVGNFTGAKQASSQSWVPG
partner: B1 chain

Variants of: B1
Settings: with foxo3_mouse Foxo3, Q9WVH4

**Q.** Which “effect of a mutation on the interaction” value does the source give for H297A here?
**A.** disrupting interaction

Variants of: B2
Settings: with setd7_human SETD7, Q8WTS6

**Q.** With K270R as the variant, how does the “effect of a mutation on the interaction” value read?
**A.** disrupting interaction
